Experimental data reported in patent publication US10155985B2, “Evaluation of eosinophilic esophagitis” (CHILDREN'S HOSPITAL MEDICAL CENTER, priority 2004, dated 2018).

B1: SEQ_ID_#95 (nucleic acid, listed as Homo sapiens)
DNA: TTTTTTTTTTTTTTTTGTAATAAGAAAAAATTTTAGTAAAAGAAAATTCTCACAAAGTTTTTAGTAAATGAGATTATGTTCATGAATGTGTTTGGTAAACTGTAACTCCACAGGGCAGCTCCAAGTCATGAGTGTGCAGTTGGGCTCAAACCGTACAGAAGTCATTTCCAGGATGTTATCCTTACTCTTCTAGGAGCCCACATCGCCCAGATGAGGAAGGCCACCGCTGCCGCCAACGCCGACTACCGTGAGCAGCTTCCTGCTCCCCTGTCGTCGCCTCTGCGGTCGGGGCACTTTCCCCAAAGCGCT
B2: SEQ_ID_#1002 (nucleic acid, listed as Homo sapiens)
DNA: CCACCGCCTATCCCAAAACCTATAAGAACCAATGATAATCCCACTACCCTTTGATGACTCTCTTTTTGGACTCAGCCCGCCTGCACCCAGGTGAAATAAACAGCCTCGTTGCTCACACAAAGCCTGTTTGGTGGTCTCTTCACACGGACGCATGAGACATTTGGTGCCGAAGACCCGGGTCAGCGGGACTCCTTCGGGACAGCAGTCCCCTGTCCTCACCTTCACTCCCTGAAGAGATCCACCTACAACCTCAGGTCCGCAGACCAACCAGCCCAAGGAACATCTCACTGATTTTAAATTGGACTCTCTTCACACGGGCGAGTGTGACATTTGGTGCCGAAGACCCAGGACAGGAGGACTCCTTTGGGAGACCGGTCTCCTGTCCTCGCCCTCACTCCGTGAGGAGATCCACCTGCAACCTCAGGTCCTCAGACCAACCAGCCGAAGGAACATCTCACCAATTTCAAATGGGCTTAGCGGCTGAAGACTGATGCTGCCTGGTCGCCTCGGAAGCCCCCTGGACCATCATGGACGCCGAGCTTCGGGTAACTCTCACAGTGGAGGCCTGTTTGGTGACTTTCTTCGCACCGACGTGCGTGACACAATGTTTGCAGAATATGAAGGTGGCTGTCACGTGGTCTGGGCTTCCTGGAGGTTTGAGCTGGGAGCTGAAGCCCCGTAGGAGTTCTGTAAGTCAAAAGGGAAGAGAAGAGCATTCCACGTAGAGAAAAGAATCTGTGCTCCAGGCGCGGTGGCTCACGATTGTAATCTCAGCACTTGGTGTCAGGCCTCTGAGCCCAGGCTAAGCCATTGTATATCCCCCGTGACCTGCATGTATACATCCAGATGGCCTGAAGCAGCTGAAGAACCACAAGAGAAGTGAAAATAGCCAGTTCCTGCCTTAACTGATGTCATTCCACCATTGTGATTTGTTCCTGTCCCACCTTTACTGATCAATTAACTTTGTGACATTTCTTCTCCTGGACAATGAGTCTCATGATCTCCCTACCCAGCACCTTGTGACCCCTGCCCCTGCCCGCAAGAGATAACCATCTTTAACTGTAACTTTCCACTACCTACCTAAATCCTGTAAAAACTGACCCACCCCCTATCTCCCTTTGCTGACTCCTTTTTCGGACTCAGCCCGCCTGCACCCAGGTGATTAAAAAGCTTTATTGTTCACATG
B3: SEQ_ID_#978 (nucleic acid, listed as Homo sapiens)
DNA: GTATATGTTAAAAAAAGAGAAGGTCGCATTATGGACAGACTTCGTGAATGGGAATTTGCTTAGAATTGTGAGTAGTTCTGAATTAGAAAAGTATGTGAAGGAAAGGCAGCTGTAAACGTATTGTGCCCTGGAGAGTTGTACACATGTTGAAATGTAATCTGGGCTTACCTGATCCATTTGGAGTGGATGTCACTGCCGAGTCTGTTCTCACATGGAACCATGTGTGTGGGGTTGCCAGCCTCACAGATACAATCAATCCTATTCCCCTCTGACATAAGGAACTCCTCTGGAGTGGCAGAGTCTTATCACAGAAGGCAGCCACCATTTCACCAAAACAAAAGTTCACGGCATTCAATTCCTTTTTCCTTTAGCTATTTATATATGCAGTACTCTCAGTCATATGCAGAAATACTTTTTTTTTTTAATTAATAGTTACAGGCTTGTTGGTCCAGTGGGATTTGGGTAGGGGGAGAAAGATACCTTCTAAAATGGATCAATAGAACCAAAATAATACAGCATGTTCTATAACCACAAGGAAATCAAATGATCCTGTCATGATTCCAGTTAGTCATAACTATGTTAGCAGTGCTAAATGCATTTTAGAAATGGTGACTTCTGTGGTTTTCCTAGCATTTGTCTCTAACAAATGGTGAAATAATTACTCATGGCCCTCTCTGCCATTGTCTTTCATTTTTTCACAGTGAAATTAGACCCCTTTACTTCACCATTCTGCCACTGCAAATTAAGTATAAAGAAAATAGCAAGAGTGTCCACACCAGTAGACAGTAAGCTTCTCTACCTGTAAGTGATGAAATCATAGCTAATGCACTTGCCATGGAGTTTTCAAGATGATTGGTGTCAGACAGTTTTCACTTTGTTTAAAAAGTGTTGGTGGCCTTTTGTGGTGGTGTTACAATCCTCTGGGGGCTTAGGAGGATGTTGATGCAACTTTTAGAAGCTTTTAATTTCAAAAACAACTCAAAAATCTGAAGGACAGTCATAGCTGCCACTCAGCCCCAGTTAGTCAAACCCCAGTGACCTTTGCCCCTGGTTGCCAAGGGCTTTGCAACATCAAGCAGGGAAATAAGGATCTGTCTGTTTAGTGGATACCGTGTATCCTTTAATAGACCAGGTAACAGTTCGTGTTAGTTTAGACTATTGTTTTGTACTGTACTTTCTTGGGTGGCAGAGGAAAGAAAAGTAAAACATT
B4: SERPINB1 (nucleic acid, listed as Homo sapiens)
DNA: GCTCGGAGCCCGGAGCGTGCCTCGGCGGCCTGTCGGTTTTCACCATGGAGCAGCTGAGCTCAGCAAACACCCGCTTCGCCTTGGACCTGTTCCTGGCGTTGAGTGAGAACAATCCGGCTGGAAACATCTTCATCTCTCCCTTCAGCATTTCATCTGCTATGGCCATGGTTTTTCTGGGGACCAGAGGTAACACGGCAGCACAGCTGTCCAAGACTTTCCATTTCAACACGGTTGAAGAGGTTCATTCAAGATTCCAGAGTCTGAATGCTGATATCAACAAACGTGGAGCGTCTTATATTCTGAAACTTGCTAATAGATTATATGGAGAGAAAACTTACAATTTCCTTCCTGAGTTCTTGGTTTCGACTCAGAAAACATATGGTGCTGACCTGGCCAGTGTGGATTTTCAGCATGCCTCTGAAGATGCAAGGAAGACCATAAACCAGTGGGTCAAAGGACAGACAGAAGGAAAAATTCCGGAACTGTTGGCTTCGGGCATGGTTGATAACATGACCAAACTTGTGCTAGTAAATGCCATCTATTTCAAGGGAAACTGGAAGGATAAATTCATGAAAGAAGCCACGACGAATGCACCATTCAGATTGAATAAGAAAGACAGAAAAACTGTGAAAATGATGTATCAGAAGAAAAAATTTGCATATGGCTACATCGAGGACCTTAAGTGCCGTGTGCTGGAACTGCCTTACCAAGGCGAGGAGCTCAGCATGGTCATCCTGCTGCCGGATGACATTGAGGACGAGTCCACGGGCCTGAAGAAGATTGAGGAACAGTTGACTTTGGAAAAGTTGCATGAGTGGACTAAACCTGAGAATCTCGATTTCATTGAAGTTAATGTCAGCTTGCCCAGGTTCAAACTGGAAGAGAGTTACACTCTCAACTCCGACCTCGCCCGCCTAGGTGTGCAGGATCTCTTTAACAGTAGCAAGGCTGATCTGTCTGGCATGTCAGGAGCCAGAGATATTTTTATATCAAAAATTGTCCACAAGTCATTTGTGGAAGTGAATGAAGAGGGAACAGAGGCGGCAGCTGCCACAGCAGGCATCGCAACTTTCTGCATGTTGATGCCCGAAGAAAATTTCACTGCCGACCATCCATTCCTTTTCTTTATTCGGCATAATTCCTCAGGTAGCATCCTATTCTTGGGGAGATTTTCTTCCCCTTAGAAGAAAGAGACTGTAGCAATACAAAAATCAAGCTTAGTGCTTTATTACCTGAGTTTTTAATAGAGCCAATATGTCTTATATCTTTACCAATAAAACCACTGTCCAGAAAAAAAAAAAAAAAAAAAA
B5: SEQ_ID_#1005 (nucleic acid, listed as Homo sapiens)
DNA: ATAGATTCTGCAGCATGGCAAACAGGTAATACTTAAAGCCAAATGGCGCTTCGGCTTATTTCAATACTATTTTTATGTAAAGATCAGTGTGAGAATATCAGCTCAATGGTTGAGGTTCTAGGATCAATTGCCTTGCAGTTTTTATACTAGCTTTTGATATCTTTTGCCTATTAAAACACTTTGTGAACTTTAGAATTAAGGAACTAAAAAATATTTACCATAAGTCCAAGTTATGACTTGAGGATCATATCTGATTAGAACTGTGGCAGAACTACTAGAAAAAGATTCTGCAAATTGGTTTCAGTGATTCTTGTTGATGTAATCAACAAGATTACATAATCAACAATAATAGATATTGAACCAAAATGATCCTTTTTTTAAGTTTAAGGTTATTTAGTTTCTCTTGCAAGGATATGATTTAGTCCTAATAGGGAATATGTGTATGTACTGGTGGGGAGCAGTGGGCTTGCTGCATGTATGTATGTTTTAAAATTAATAAATATTATCTTACTGGGCTCCATAGATGGTTTAAATTTAGATTTATTTAATTAAGAGGCTATAAATAATATATACACTACTGTATGGTATTTAACAAATAAGTTTTAAATCTGTTAATTCTTCTGGAAAACTTTGGATGTAGGGATGGCAAGCTAATTTTCTTGTATAGCTGGTGATATAAGCAGCATGGTCATAAAATAACATTTCTTATAAAGAC

Test system: EE transcriptome
Test: Genome-wide microarray transcript profiling of esophageal biopsies, EE patients vs normal individuals (EE transcriptome)
Conditions: Affymetrix Human Genome U133 plus 2, p<0.01
How it was run: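 Distal esophageal biopsies from EE patients (n=76; >24 eosinophils/hpf, basal hyperplasia) and normal controls (n=13; 0 eosinophils/hpf) profiled on Affymetrix Human Genome U133 plus 2 chips. Expression by absolute call and average difference, global scaling; transcriptome genes defined as p<0.01 (Welch t-test) and ≥1.5-fold change.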

[1] = transcript level in esophageal biopsies of EE patients compared to normal individuals (NL), >1 up-regulated, <1 down-regulated

Molecule	Fold Change (transcript level in esophageal biopsies of EE patients (n=76) compared to normal individuals (n=13))	Fold Change [1]
B1	3.633	–
B2	–	0.612
B3	–	0.62
B4	–	0.62
B5	–	0.61
